We go through 1 variant from paper PMC4091690, “A Broadly Conserved G-Protein-Coupled Receptor Kinase Phosphorylation Mechanism Controls Drosophila Smoothened Activity” (PLoS Genetics, 2014).

B1: Smo^core (Drosophila Smoothened amino acids 1-663), C-terminally tagged with GFP10 S634 [Drosophila] / Costal-2 (Cos2), C-terminally tagged with Renilla luciferase II … (parent)
chain 1: MEIPIQVAVRIFPHRELKDLLRSFGPTEPKKDAQAVDEGADSKDSEAQVPAAEKDNPSISETDPNGNAEQDSAADSKTIPDANGNDSGQKDYPDSAYCVQAIPISASALGLPSALPGGDPMDSIAAGLIQVGPHTVPVTHALPSSSSQEQVYHQTVFPLITLFLEGFDASVVTYGQRGQGKSYTLYGNVQDPTLTDSTEGVVQLCVRDIFSHISLHPERTYAINVGFVEICGGDVCDLLGMGNIHCTNVDAVFHWLQVGLSARQSLPAHTLFTLTLEQQWVSKEGLLQHRLSTASFSDLCGTERCGDQPPGRPLDAGLCMLEQVISTLTDPGLMYGVNGNIPYGQTTLTTLLKDSFGGRAQTLVILCVSPLEEHLPETLGNLQFAFKVQCVRNFVIMNTYSDDNTMIVQPAEPVPESNSSAGPLSQAGPGDNFGLQFAASQWSKLVTNAEGLFSKLIDSKLITEVEKEQIEEWLFLKQECEECLSSTEAMRQQKQLVPILEAEEPEDVNSEAANSESPNSDNENDTDNESHRPDLDDKIESLMEEFRDKTDALILEKHAEYLSKHPKAVMQSQDREIEAQPPEENGDDRKVSIGSRRRSVQPGASLSTAELAMLNRVASQQPPPPIDPESVVDPLESSSGEGIRQAALAAAAATAPIEQLQKKLRKLVAEIEGKQRQLREIEETIQVKQNIIAELVKNSDTRSHAKQRFHKKRAKLEAECDKAKKQLGKALVQGRDQSEIERWTTIIGHLERRLEDLSSMKHIAGESGQKVKKLQQSVGESRKQADDLQKKLRKECKLRCQMEAELAKLRESRETGKELVKAQGSPEQQGRQLKAVQARITHLNHILREKSDNLEEQPGPEQQETLRHEIRNLRGTRDLLLEERCHLDRKLKRDKVLTQKEERKLLECDEAIEAIDAAIEFKNEMITGHRSIDTSDRIQREKGEQMLMARLNRLSTEEMRTLLYKYFTKVIDLRDSSRKLELQLVQLERERDAWEWKERVLSNAVRQARLEGERNAVLLQRQHEMKLTLMLRHMAEETSASSASYGERALAPACVAPPVQASSDFDYDHFYKGGGNPSKALIKAPKPMPTGSALDKYKDKEQRSGRNIFAKFHVLTRYASAAAAGSSGSTAEESTALIESTTTATATTTSTTTTGAVGKVKDKALVSFRPEQLKRLMPAPTATKVTRQKNKIIIQDASRRN
chain 2: SSAKFGSTTPASAQQSDVELEPINGTLNYRLYAKKGRDDKPWFDGLDSRHIQCVRRARCYPTSNATNTCFGSKLPYELSSLDLTDFHTEKELNDKLNDYYALKHVPKCWAAIQPFLCAVFKPKCEKINGEDMVYLPSYEMCRITMEPCRILYNTTFFPKFLRCNETLFPTKCTNGARGMKFNGTGQCLSPLVPTDTSASYYPGIEGCGVRCKDPLYTDDEHRQIHKLIGWAGSICLLSNLFVVSTFFIDWKNANKYPAVIVFYINLCFLIACVGWLLQFTSGSREDIVCRKDGTLRHSEPTAGENLSCIVIFVLVYYFLTAGMVWFVFLTYAWHWRAMGHVQDRIDKKGSYFHLVAWSLPLVLTITTMAFSEVDGNSIVGICFVGYINHSMRAGLLLGPLCGVILIGGYFITRGMVMLFGLKHFANDIKSTSASNKIHLIIMRMGVCALLTLVFILVAIACHVTEFRHADEWAQSFRQFIICKISSVFEEKSSCRIENRPSVGVLQLHLLCLFSSGIVMSTWCWTPSSIETWKRYIRKKCGKEVVEEVKMPKHKVIAQTWAKRKDFEDKGRLSITLYNTHTDPVGLNFDVNDLNSSETNDISSTWAAYLPQCVKRRMALTGAATGNSSSHGP

Variants of B1 are the subject of the assay. As to the kind of experiment: BRET. The conditions noted are these: with Costal-2 (Cos2), S2 cells treated with smo 3′UTR dsRNA to deplete endogenous Smo, parent: 100, read off a plot.
As for chain 2 S573A T575A T579A T581A S595A S596A T598A S602A S603A T604A T620A T624A S627A S628A S629A, the response was determined as 30.
